The results in this text go back to patent US20210032331A1 (PHANES THERAPEUTICS, published 2021).

The target of test [1] is T1, full-length human LAG-3 on stably transfected CHO-S cells (human, UniProt P18627 23-525).
T1 construct: also called hLAG3
T1 sequence: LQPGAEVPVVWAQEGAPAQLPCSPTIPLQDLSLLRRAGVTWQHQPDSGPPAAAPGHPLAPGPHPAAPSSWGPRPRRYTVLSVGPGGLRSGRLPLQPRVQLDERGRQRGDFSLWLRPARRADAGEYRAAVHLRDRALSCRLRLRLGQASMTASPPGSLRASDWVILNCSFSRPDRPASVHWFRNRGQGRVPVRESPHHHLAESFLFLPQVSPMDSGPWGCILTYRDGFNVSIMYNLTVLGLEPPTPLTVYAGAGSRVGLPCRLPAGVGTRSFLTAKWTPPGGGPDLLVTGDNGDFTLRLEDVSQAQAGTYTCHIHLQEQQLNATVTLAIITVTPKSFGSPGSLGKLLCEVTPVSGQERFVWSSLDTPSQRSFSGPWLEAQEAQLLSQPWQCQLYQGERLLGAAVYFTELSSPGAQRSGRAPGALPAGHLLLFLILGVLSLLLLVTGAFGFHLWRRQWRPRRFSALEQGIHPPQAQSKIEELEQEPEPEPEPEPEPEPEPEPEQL
In words: FACS, CHO-S cells stably transfected with full-length human LAG-3, PE anti-mouse IgG. Here is the method:
CHO-S cells stably transfected with full-length human LAG-3 were transferred to a 96-well plate. Around 200,000 cells were incubated with either purified chimeric anti-LAG-3 mAbs (variable regions of mouse mAbs fused to the constant regions of human IgG1 heavy chain and kappa light chain, respectively) or purified mouse anti-LAG-3 mAbs from hybridoma supernatants at various concentrations for 15 minutes at 4° C. Cells were then centrifuged at 1,000 rpm for 5 minutes and washed with FACS buffer (PBS supplemented with 5% BSA) three times. For the cells treated with the chimeric antibodies, the cells were then incubated with PE-conjugated goat anti-human IgG polyclonal antibodies and incubated on ice for another 15 minutes; for the cells treated with mouse mAbs, the cells were incubated with PE-conjugated goat anti-mouse IgG polyclonal antibodies and incubated on ice for another 15 minutes. Cells were then washed with FACS buffer three times and then resuspended in FACS buffer containing 0.1 μg/ml PI (propidium iodide) for live/dead cell gating. Cells were then run through the FACS Caliber instrument and the data were analyzed by the Flowjo software. Results of the FACS binding analysis of the mouse anti-LAG-3 mAbs (B1, B2, B3, B4, B5, B6, B7, B8, B9, B10, B11, B12, and B13) are provided in FIGS. 1A-1B.
(Flow cytometry measures light scatter and fluorescence of single cells or particles in a stream.)

The target of the next test is T2, human LAG-3(ECD)-mFc (human, UniProt P18627 23-450).
T2 construct: also called hLAG3-mFc; human LAG-3 extracellular domain (ECD) fused to mouse Fc; not shown: mouse Fc
T2 sequence: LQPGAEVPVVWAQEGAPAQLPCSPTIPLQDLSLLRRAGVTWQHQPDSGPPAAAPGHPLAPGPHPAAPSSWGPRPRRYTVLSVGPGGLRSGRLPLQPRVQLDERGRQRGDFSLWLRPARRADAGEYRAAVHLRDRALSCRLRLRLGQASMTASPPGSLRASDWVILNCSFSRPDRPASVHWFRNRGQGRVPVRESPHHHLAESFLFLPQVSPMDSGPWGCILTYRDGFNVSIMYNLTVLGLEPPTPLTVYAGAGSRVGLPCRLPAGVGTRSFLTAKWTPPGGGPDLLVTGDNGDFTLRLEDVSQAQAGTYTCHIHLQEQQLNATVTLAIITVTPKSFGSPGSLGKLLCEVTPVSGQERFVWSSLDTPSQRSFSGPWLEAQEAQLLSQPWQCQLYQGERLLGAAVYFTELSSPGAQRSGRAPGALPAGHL
The test is described as follows: FACS blocking assay: mAb preincubated with LAG-3(ECD)-mFc (1 µg/mL), blocked ligand MHC class II on Daudi cells, PE anti-mouse Fc. Here is the method:
FIGS. 4A-4D show inhibition of human LAG-3 binding to MHC class II molecules by select anti-LAG-3 mAbs. An in vitro binding assay was performed using recombinant LAG-3(ECD)-mFc and Daudi cells which express human MHC class II molecules. […] The binding of LAG-3(ECD)-mFc to Daudi cells in the presence of anti-LAG-3 mAbs or a control mAb was analyzed by FACS.
Human Daudi cells were cultured in RPMI+10% FBS. Human LAG-3(ECD)-mFc protein (human LAG-3 ECD fused to mouse Fc) at 1 μg/ml final concentration was incubated with purified mouse, humanized, or chimeric anti-LAG-3 mAbs at various concentrations for 15 minutes at 4° C. The mixture was then added to 100,000 human Daudi cells in a 96-well round bottom plate, mixed and incubated for 15 minutes on ice. Cells were then centrifuged at 1,000 rpm for 5 minutes and washed with FACS buffer (PBS supplemented with 5% BSA) three times. The cells were then incubated with PE-conjugated goat anti-mouse Fc polyclonal antibodies on ice for 15 minutes, washed with FACS buffer three times and then resuspended in FACS buffer containing 0.1 μg/ml PI (propidine iodine) for live/dead cell gating. Cells were then run through the FACS Caliber instrument and the data were analyzed by the Flowjo software. Results of the inhibition of LAG-3 binding to Daudi cells by chimeric mAbs B1C, B3C, B4C, BSC, B9C, and B11C are shown in FIG. 4B.

The target in test [2] is T3, BG29 (human IgG4 heavy chain and kappa light chain chimeric).
T3 construct: Chimeric: mouse VH and VL with human IgG4 heavy chain and kappa light chain constant regions; also called chimeric BG29
In words: ELISA peptide competition: peptide preincubated with chimeric IgG4 BG29, competitor hLAG3-mFc; peptide at 200-fold hLAG3-mFc; capture on anti-human IgG, anti-mouse IgG-HRP. The method, then: (§1) FIGS. 5A-5D show the effect of competition peptides on LAG-3 binding to anti-LAG-3 mAbs. […] B5/IgG4 was preincubated with a competition peptide for 30 minutes. Then human LAG-3 extracellular domain (ECD) fused to mouse Fc (hLAG3-mFc) was added (the final peptide concentration was 600-fold that of hLAG3-mFc) and the mixture was incubated for 60 minutes before being added to an ELISA plate coated with anti-human IgG. The incubation was carried out at 4° C. overnight. After washing, the hLAG3-mFc bound to the immobilized B5/IgG4 on the ELISA plate was detected by adding anti-mouse IgG conjugated to horseradish peroxidase (HRP) and incubating for 60 minutes. Then, after washing, the ELISA was developed using One-step Detection Solution and measured as the absorbance at 450 nm.
(§2) Anti-human IgG in carbonate coating buffer was coated on an ELISA plate at 4° C. (50 μL/well at 1 μg/mL) overnight. In each well of a separate plate, a chimeric version of a given anti-LAG-3 mAb (50 μL/well at 1.4 nM) and a competition peptide (50 μL/well at various concentrations as indicated in the figures) were mixed and incubated for 30 minutes at room temperature. Then human LAG-3 extracellular domain (ECD) fused to mouse Fc (hLAG3-mFc) was added to each well (50 μL/well at 2 nM) and the final mixture was incubated at room temperature for 60 minutes before added to the ELISA plate (50 μL/well) for another 60-minute incubation. The final incubation after adding the mixture to the ELISA plate was also performed at 4° C. overnight in some assays. The plate was washed and the binding of hLAG3-mFc to the immobilized anti-LAG-3 mAb was detected by adding anti-mouse IgG conjugated to horseradish peroxidase ([…]) (ThermoFisher Scientific, Cat#: A16084; Waltham, Mass.) and incubating for 60 minutes.

For another test, the target named is T4, B7/IgG4.
T4 construct: Chimeric: mouse VH and VL with human IgG4 heavy chain and kappa light chain constant regions; also called B7 (human IgG4 heavy chain and kappa light chain chimeric)
In words: ELISA peptide competition: peptide preincubated with B7/IgG4, competitor hLAG3-mFc; peptide at 600-fold hLAG3-mFc; final incubation 60 min at room temperature; anti-mouse IgG-HRP. Here is the method: B5/IgG4 was preincubated with a competition peptide for 30 minutes. Then human LAG-3 extracellular domain (ECD) fused to mouse Fc (hLAG3-mFc) was added (the final peptide concentration was 600-fold that of hLAG3-mFc) and the mixture was incubated for 60 minutes before being added to an ELISA plate coated with anti-human IgG. The incubation was carried out at 4° C. overnight. After washing, the hLAG3-mFc bound to the immobilized B5/IgG4 on the ELISA plate was detected by adding anti-mouse IgG conjugated to horseradish peroxidase (HRP) and incubating for 60 minutes. Then, after washing, the ELISA was developed using One-step Detection Solution and measured as the absorbance at 450 nm.
The assay condition is the same as in FIG. 5A except that the final incubation of the mAb, the competition peptide, and hLAG3-mFc on the ELISA plate was performed at room temperature for 60 minutes instead of incubation at 4° C. overnight.
Anti-human IgG in carbonate coating buffer was coated on an ELISA plate at 4° C. (50 μL/well at 1 μg/mL) overnight. In each well of a separate plate, a chimeric version of a given anti-LAG-3 mAb (50 μL/well at 1.4 nM) and a competition peptide (50 μL/well at various concentrations as indicated in the figures) were mixed and incubated for 30 minutes at room temperature. Then human LAG-3 extracellular domain (ECD) fused to mouse Fc (hLAG3-mFc) was added to each well (50 μL/well at 2 nM) and the final mixture was incubated at room temperature for 60 minutes before added to the ELISA plate (50 μL/well) for another 60-minute incubation.
For orientation: ELISA stands for enzyme-linked immunosorbent assay.

In a further test the target is T5, B5/IgG4.
T5 construct: Chimeric: mouse VH and VL with human IgG4 heavy chain and kappa light chain constant regions; also called B5 (human IgG4 heavy chain and kappa light chain chimeric)
The test is described as follows: ELISA peptide competition: peptide preincubated with B5/IgG4, competitor hLAG3-mFc; peptide at 600-fold hLAG3-mFc; capture on anti-human IgG, anti-mouse IgG-HRP. Here is the method:
as §1, §2

Test [3] deals with T6, B12 (human IgG1 heavy chain and kappa light chain chimeric).
T6 construct: Chimeric: mouse VH and VL with human IgG1 heavy chain and kappa light chain constant regions
The test is described as follows: ELISA peptide competition: peptide preincubated with chimeric IgG1 B12, competitor hLAG3-mFc; peptide at 600-fold hLAG3-mFc; capture on anti-human IgG, anti-mouse IgG-HRP. Here is the method: as §1, §2

T5 sequence (VH, as listed by the source, chain 1 of 2): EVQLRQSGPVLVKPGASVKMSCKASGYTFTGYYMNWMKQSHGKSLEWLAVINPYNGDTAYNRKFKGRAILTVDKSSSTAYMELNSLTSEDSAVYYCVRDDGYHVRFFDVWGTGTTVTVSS
T5 sequence (VL, as listed by the source, chain 2 of 2): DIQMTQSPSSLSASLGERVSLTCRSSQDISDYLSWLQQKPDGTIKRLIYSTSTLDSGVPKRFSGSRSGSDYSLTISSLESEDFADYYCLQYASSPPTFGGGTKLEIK
T4 sequence (VH, as listed by the source, chain 1 of 2): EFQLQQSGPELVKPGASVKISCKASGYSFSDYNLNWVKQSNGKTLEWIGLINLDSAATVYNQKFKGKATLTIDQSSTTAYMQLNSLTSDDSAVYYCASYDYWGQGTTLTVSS
T4 sequence (VL, as listed by the source, chain 2 of 2): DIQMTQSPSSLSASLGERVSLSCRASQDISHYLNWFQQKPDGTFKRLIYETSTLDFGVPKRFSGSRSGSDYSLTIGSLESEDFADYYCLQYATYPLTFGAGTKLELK

B1: B12 (antibody, V domains shown)
VH: EVKLLESGGSLVQPGGSLKLSCAASGFDFSRYWMSWVRQAPGKGLEWIGEINPDSSTINYTPSLRDEFIISRDNAKNTLFLQMSKVISEDTALYYCARITSGYYFDYWGQGTTLTVSS
VL: DVVMTQTPLSLPVSLGDQASISCRSSQTIVYSNGNTYLYWYLQKPGQSPKLLIYRVSNRFPGVPDRFSGSGSGTDFTLKISGVEAEDMGVYYCFQGTHVPFTFGSGTKLEMK
notes: Mouse mAb from hybridoma; also called mouse anti-LAG-3 mAb B12
With B1, the binding result (in test [1]; with human LAG-3(ECD)-mFc) was “binds” each time.

In the case of GPPAAAPGHPLAPGPHPAAPSSWGPRPRRY (also called peptide 1-30) [1-30], the binding result (in test [2]; in the test with B7/IgG4) was “binds” in each case.

B2: BG29 (antibody, V domains shown)
VH: QIQLQQSGPEVVKPGASVRISCKASGYTFSDYHINWVKQKPGQGLEWIGWIYPGRGDPEYNEKFKGKATLTVDRSASTAYMQLSSLTSEDTSVYFCEIYYGNYIDYWGQGTTLTVSS
VL: DIVMTQAAPSVPVTPGESVSISCRSSKSLLHSDGKTYLYWFLQRPGQSPQRLIYYMSNLASGVPDRFSGRGSGTDFTLRISRVEAEDVGVYYCMQSLEYPWTFGGGTKLEIK
notes: Mouse mAb from hybridoma; also called mouse anti-LAG-3 mAb BG29
Consider B2, for which the half-maximal effective concentration (EC50 (read off the curve)) (usually the concentration at which the effect is half-maximal) in test [1] was approximately 0.2 µg/mL.

B3: BG33 (antibody, V domains shown)
VH: QIQLQQSGPEVVKPGASVKISCKASGYTFSDYHINWVKQKPGQGLEWIGWIYPGRGNPEYNEKFKGKATLTVDRSANTAYMQLSSLTSEDSSVYFCEIYYGNYLDYWGQGTTLTVSS
VL: DIVMTQAAPSVPVTPGESVSISCRSSKSLLHSDGKTYLYWFLQRPGQSPQRLIYYMSNLASGVPDRFSGRGSGTDFTLRISRVEAEDVGVYYCMQSLEYPWTFGGGTKLEIK
notes: Mouse mAb from hybridoma; also called mouse anti-LAG-3 mAb BG33
Turning to B3, in test [1], the concentration for a half-maximal effect (EC50 (read off the curve)) is approximately 0.4 µg/mL.

B4: BG27 (antibody, V domains shown)
VH: QAYLQQSGADLVRPGASVKMSCKASGYTFTSYDMHWVKQTPRQGLEWIGAIYPGNGDASYNQKFKGKATLTVDKASSTAFMQLSSLTSEDSAVYFCARGDYGNYVWFAYWGQGTLVTVSA
VL: DVVMTQTPLSLPVSLGDQASISCRSSQTIVHSNRYTYLEWYLQKPGQSLKLLIYGVSNRFSGVPDRFSGSGSGTDFTLKISRVEAEDMGVYYCFQGTHVPPTFGAGTKLELK
notes: Mouse mAb from hybridoma; also called mouse anti-LAG-3 mAb BG27
As to B4, in test [1], the “EC50 (read off the curve)” value is approximately 0.3 µg/mL. Take PPAAAPGHPLAPG (also called peptide 2-14) [2-14]: the binding result (in the test with B5/IgG4; in test [3]; in test [2]) was “binds” throughout.
